Measurements: the supplement of paper PMC10065799, “High-throughput profiling of sequence recognition by tyrosine kinases and SH2 domains using bacterial peptide display” (eLife, 2023)

tested on: AncSZ; test: phosphorylation enrichment, bacterial display (enrichment ratio); higher = better substrate or ligand; peptides without Tyr show the background
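Further: 11-residue human phosphosite peptides and single-mutation variants displayed on the E. coli surface, counted by deep sequencing, each peptide's frequency after selection divided by its frequency in the unselected input library; frequency after pTyr selection over input frequency; kinase dosed for 20-30% of maximal phosphorylation in three min.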

| Sequence | phosphorylation enrichment |
| --- | --- |
| HRTLVYGGIFL [FBP1_Y259] | 1.19 |
| AGADGYDYLAP [FOXL2_Y186_G187D] | 3.5 |
| YGSSSSGGAGG [RPA2_Y14_Y14S] | 0.604 |
| QTWKTYVRQQQ [SFI1_Y164] | 0.914 |
| DALDNYVVRGV [PCCA_Y473_I475V] | 0.751 |
| GFAIVYGTIIL [GPR179_Y460] | 1.19 |
| IYRAAYFGVYD [SLC25A4_Y191] | 1.15 |
| CTTSHYNFMCN [TP53_Y234_I232S_YF] | 0.911 |
| LEAVSYSSRFA [RNLS_Y190_YF] | 0.718 |
| FAKTQYPDVYA [CRX_Y63] | 0.628 |
| MSRDVYSTDYY [NTRK2_Y702] | 1.59 |
| QAYSWYQHQRA [NDST1_Y714_R709Q] | 1.13 |
| DGTESYLTVSS [PLK1_Y462] | 0.89 |
| IIWDSYTTNKM [GNB4_Y85] | 1.3 |
| PMDTYYDSTRG [DYNC2H1_Y2231] | 1.5 |
| QSLEPYTKQQL [STAT3_Y640_V637L] | 0.537 |
| DRLASYLDKVP [KRT14_Y129_R134P] | 0.802 |
| TTSQPYRRLCS [USH2A_Y534_C536R] | 0.412 |
| NSFKFYMSDDI [ATRX_Y204_C200S_YF] | 1.14 |
| NGSKGYAFVHF [PABPC5_Y147_YF] | 0.879 |
| APTSGYQEFVH [IL4R_Y575] | 0.741 |
| RQQQDYWLKDV [ANPEP_Y600_I603K] | 1.07 |
| LVRPPYSYLAL [FOXI1_Y126_S129L] | 0.602 |
| NTTIHYNYMCN [TP53_Y234_C229N] | 1.08 |
| ESDFTYSSSFE [SRPK2_Y427_YF] | 1.03 |
| GISDEYHVIRR [GCDH_Y398_H403R] | 0.983 |
| QMEKICTQQIQ [CCNB1IP1_Y125_Y125C] | 1.36 |
| RFLRGYRQYAY [HLA-A_Y137_D140Y] | 1.61 |
| DLVRPYVHKIL [SF3B1_Y570] | 0.636 |

biological target: EPHB1 (UniProt P54762); test: as above
Sequence (P54762 whole entry, looked up): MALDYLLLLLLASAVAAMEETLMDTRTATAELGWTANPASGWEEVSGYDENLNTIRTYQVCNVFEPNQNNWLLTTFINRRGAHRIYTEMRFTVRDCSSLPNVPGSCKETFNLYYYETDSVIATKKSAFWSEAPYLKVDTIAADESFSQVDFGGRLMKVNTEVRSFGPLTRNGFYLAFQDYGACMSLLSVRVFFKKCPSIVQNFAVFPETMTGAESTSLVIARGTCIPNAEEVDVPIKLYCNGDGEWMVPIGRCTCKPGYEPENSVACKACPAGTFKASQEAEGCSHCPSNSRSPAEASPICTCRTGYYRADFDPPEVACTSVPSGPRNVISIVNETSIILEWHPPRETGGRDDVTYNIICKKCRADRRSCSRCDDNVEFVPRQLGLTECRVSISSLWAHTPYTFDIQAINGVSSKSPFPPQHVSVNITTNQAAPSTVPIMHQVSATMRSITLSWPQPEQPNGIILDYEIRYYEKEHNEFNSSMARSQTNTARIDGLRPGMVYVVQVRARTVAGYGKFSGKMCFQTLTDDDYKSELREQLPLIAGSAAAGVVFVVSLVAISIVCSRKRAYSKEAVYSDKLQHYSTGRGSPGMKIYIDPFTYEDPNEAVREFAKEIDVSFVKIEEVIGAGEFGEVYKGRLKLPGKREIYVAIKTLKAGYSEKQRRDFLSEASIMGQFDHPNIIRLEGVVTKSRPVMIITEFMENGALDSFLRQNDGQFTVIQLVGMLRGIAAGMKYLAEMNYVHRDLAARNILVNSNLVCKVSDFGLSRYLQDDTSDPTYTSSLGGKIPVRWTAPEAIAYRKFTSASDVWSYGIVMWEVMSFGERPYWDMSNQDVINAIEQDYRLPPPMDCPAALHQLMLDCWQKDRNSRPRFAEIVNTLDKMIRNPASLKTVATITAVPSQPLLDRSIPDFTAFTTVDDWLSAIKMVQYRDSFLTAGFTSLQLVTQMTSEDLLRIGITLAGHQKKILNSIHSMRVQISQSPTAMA

| Sequence | phosphorylation enrichment |
| --- | --- |
| HRTLVYGGIFL [FBP1_Y259] | 0.677 |
| AGADGYDYLAP [FOXL2_Y186_G187D] | 0.585 |
| YGSSSSGGAGG [RPA2_Y14_Y14S] | 0.304 |
| QTWKTYVRQQQ [SFI1_Y164] | 0.524 |
| DALDNYVVRGV [PCCA_Y473_I475V] | 0.499 |
| GFAIVYGTIIL [GPR179_Y460] | 0.644 |
| IYRAAYFGVYD [SLC25A4_Y191] | 1.2 |
| CTTSHYNFMCN [TP53_Y234_I232S_YF] | 0.516 |
| LEAVSYSSRFA [RNLS_Y190_YF] | 0.369 |
| FAKTQYPDVYA [CRX_Y63] | 0.474 |
| MSRDVYSTDYY [NTRK2_Y702] | 2.16 |
| QAYSWYQHQRA [NDST1_Y714_R709Q] | 0.701 |
| DGTESYLTVSS [PLK1_Y462] | 0.447 |
| IIWDSYTTNKM [GNB4_Y85] | 0.68 |
| PMDTYYDSTRG [DYNC2H1_Y2231] | 1.28 |
| QSLEPYTKQQL [STAT3_Y640_V637L] | 0.497 |
| DRLASYLDKVP [KRT14_Y129_R134P] | 0.537 |
| TTSQPYRRLCS [USH2A_Y534_C536R] | 0.247 |
| NSFKFYMSDDI [ATRX_Y204_C200S_YF] | 0.56 |
| NGSKGYAFVHF [PABPC5_Y147_YF] | 0.481 |
| APTSGYQEFVH [IL4R_Y575] | 0.36 |
| RQQQDYWLKDV [ANPEP_Y600_I603K] | 0.484 |
| LVRPPYSYLAL [FOXI1_Y126_S129L] | 0.63 |
| NTTIHYNYMCN [TP53_Y234_C229N] | 0.747 |
| ESDFTYSSSFE [SRPK2_Y427_YF] | 0.531 |
| GISDEYHVIRR [GCDH_Y398_H403R] | 0.529 |
| QMEKICTQQIQ [CCNB1IP1_Y125_Y125C] | 0.707 |
| RFLRGYRQYAY [HLA-A_Y137_D140Y] | 1.33 |
| DLVRPYVHKIL [SF3B1_Y570] | 0.519 |

biological target: EPHB2 (UniProt P29323); test: as above
Sequence (P29323 whole entry, looked up): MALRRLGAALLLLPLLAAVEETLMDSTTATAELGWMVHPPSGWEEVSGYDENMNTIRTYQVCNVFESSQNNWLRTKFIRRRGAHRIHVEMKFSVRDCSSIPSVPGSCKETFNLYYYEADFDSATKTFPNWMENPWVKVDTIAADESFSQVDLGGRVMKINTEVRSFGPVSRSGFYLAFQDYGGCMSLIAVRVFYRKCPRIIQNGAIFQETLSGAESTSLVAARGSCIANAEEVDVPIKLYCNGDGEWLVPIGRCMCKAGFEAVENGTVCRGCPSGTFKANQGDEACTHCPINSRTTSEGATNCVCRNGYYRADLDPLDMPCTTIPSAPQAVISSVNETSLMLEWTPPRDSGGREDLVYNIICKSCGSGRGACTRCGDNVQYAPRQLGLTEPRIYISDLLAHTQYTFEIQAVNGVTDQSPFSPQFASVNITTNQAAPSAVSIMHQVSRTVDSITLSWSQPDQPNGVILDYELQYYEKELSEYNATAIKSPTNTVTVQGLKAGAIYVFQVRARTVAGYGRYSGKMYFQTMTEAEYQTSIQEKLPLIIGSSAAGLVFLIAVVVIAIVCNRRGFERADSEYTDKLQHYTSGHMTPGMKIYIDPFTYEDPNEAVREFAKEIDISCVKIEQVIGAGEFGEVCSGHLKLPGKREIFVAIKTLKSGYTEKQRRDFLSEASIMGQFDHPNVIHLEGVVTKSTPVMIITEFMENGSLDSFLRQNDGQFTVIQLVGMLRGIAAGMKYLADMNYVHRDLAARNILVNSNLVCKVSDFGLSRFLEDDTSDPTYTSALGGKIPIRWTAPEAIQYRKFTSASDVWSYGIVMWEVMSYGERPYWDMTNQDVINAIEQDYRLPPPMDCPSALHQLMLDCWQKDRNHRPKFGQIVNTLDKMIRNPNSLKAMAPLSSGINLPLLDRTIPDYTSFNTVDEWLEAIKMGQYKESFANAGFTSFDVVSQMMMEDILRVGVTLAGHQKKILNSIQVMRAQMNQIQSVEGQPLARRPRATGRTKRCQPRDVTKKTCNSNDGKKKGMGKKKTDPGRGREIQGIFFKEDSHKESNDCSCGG

| Sequence | phosphorylation enrichment |
| --- | --- |
| HRTLVYGGIFL [FBP1_Y259] | 0.84 |
| AGADGYDYLAP [FOXL2_Y186_G187D] | 0.587 |
| YGSSSSGGAGG [RPA2_Y14_Y14S] | 0.461 |
| QTWKTYVRQQQ [SFI1_Y164] | 0.685 |
| DALDNYVVRGV [PCCA_Y473_I475V] | 0.536 |
| GFAIVYGTIIL [GPR179_Y460] | 0.592 |
| IYRAAYFGVYD [SLC25A4_Y191] | 1.33 |
| CTTSHYNFMCN [TP53_Y234_I232S_YF] | 0.533 |
| LEAVSYSSRFA [RNLS_Y190_YF] | 0.359 |
| FAKTQYPDVYA [CRX_Y63] | 0.526 |
| MSRDVYSTDYY [NTRK2_Y702] | 2.65 |
| QAYSWYQHQRA [NDST1_Y714_R709Q] | 0.901 |
| DGTESYLTVSS [PLK1_Y462] | 0.467 |
| IIWDSYTTNKM [GNB4_Y85] | 0.656 |
| PMDTYYDSTRG [DYNC2H1_Y2231] | 1.37 |
| QSLEPYTKQQL [STAT3_Y640_V637L] | 0.371 |
| DRLASYLDKVP [KRT14_Y129_R134P] | 0.472 |
| TTSQPYRRLCS [USH2A_Y534_C536R] | 0.393 |
| NSFKFYMSDDI [ATRX_Y204_C200S_YF] | 0.552 |
| NGSKGYAFVHF [PABPC5_Y147_YF] | 0.606 |
| APTSGYQEFVH [IL4R_Y575] | 0.535 |
| RQQQDYWLKDV [ANPEP_Y600_I603K] | 0.556 |
| LVRPPYSYLAL [FOXI1_Y126_S129L] | 0.536 |
| NTTIHYNYMCN [TP53_Y234_C229N] | 0.692 |
| ESDFTYSSSFE [SRPK2_Y427_YF] | 0.537 |
| GISDEYHVIRR [GCDH_Y398_H403R] | 0.541 |
| QMEKICTQQIQ [CCNB1IP1_Y125_Y125C] | 0.647 |
| RFLRGYRQYAY [HLA-A_Y137_D140Y] | 0.752 |
| DLVRPYVHKIL [SF3B1_Y570] | 0.586 |

biological target: FGFR1 (UniProt P11362); test: as above
Sequence (P11362 whole entry, looked up): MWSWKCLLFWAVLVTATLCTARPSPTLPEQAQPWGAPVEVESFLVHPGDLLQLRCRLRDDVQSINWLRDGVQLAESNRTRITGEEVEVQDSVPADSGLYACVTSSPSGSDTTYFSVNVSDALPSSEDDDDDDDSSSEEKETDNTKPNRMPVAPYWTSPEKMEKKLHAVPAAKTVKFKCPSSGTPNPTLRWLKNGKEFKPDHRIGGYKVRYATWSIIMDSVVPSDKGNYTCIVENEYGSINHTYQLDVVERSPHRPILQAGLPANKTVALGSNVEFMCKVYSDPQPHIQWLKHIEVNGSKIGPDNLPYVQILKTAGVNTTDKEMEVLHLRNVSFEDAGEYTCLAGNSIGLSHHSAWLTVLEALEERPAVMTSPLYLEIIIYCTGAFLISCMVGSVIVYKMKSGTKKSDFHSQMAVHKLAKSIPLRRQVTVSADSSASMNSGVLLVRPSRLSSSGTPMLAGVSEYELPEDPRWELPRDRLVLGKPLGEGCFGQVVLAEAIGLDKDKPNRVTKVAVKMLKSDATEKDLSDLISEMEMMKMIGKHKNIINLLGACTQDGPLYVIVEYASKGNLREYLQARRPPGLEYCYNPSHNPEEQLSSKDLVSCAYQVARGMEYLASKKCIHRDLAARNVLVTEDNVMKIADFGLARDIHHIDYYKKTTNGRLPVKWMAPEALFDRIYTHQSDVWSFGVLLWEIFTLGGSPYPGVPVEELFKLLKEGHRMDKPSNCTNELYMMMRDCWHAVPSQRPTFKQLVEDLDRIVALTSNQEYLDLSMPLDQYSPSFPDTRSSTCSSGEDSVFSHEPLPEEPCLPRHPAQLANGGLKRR

| Sequence | phosphorylation enrichment |
| --- | --- |
| HRTLVYGGIFL [FBP1_Y259] | 0.704 |
| AGADGYDYLAP [FOXL2_Y186_G187D] | 0.611 |
| YGSSSSGGAGG [RPA2_Y14_Y14S] | 0.403 |
| QTWKTYVRQQQ [SFI1_Y164] | 0.411 |
| DALDNYVVRGV [PCCA_Y473_I475V] | 0.458 |
| GFAIVYGTIIL [GPR179_Y460] | 0.441 |
| IYRAAYFGVYD [SLC25A4_Y191] | 0.554 |
| CTTSHYNFMCN [TP53_Y234_I232S_YF] | 0.509 |
| LEAVSYSSRFA [RNLS_Y190_YF] | 0.432 |
| FAKTQYPDVYA [CRX_Y63] | 0.533 |
| MSRDVYSTDYY [NTRK2_Y702] | 3.94 |
| QAYSWYQHQRA [NDST1_Y714_R709Q] | 1.22 |
| DGTESYLTVSS [PLK1_Y462] | 0.454 |
| IIWDSYTTNKM [GNB4_Y85] | 0.575 |
| PMDTYYDSTRG [DYNC2H1_Y2231] | 3.15 |
| QSLEPYTKQQL [STAT3_Y640_V637L] | 0.452 |
| DRLASYLDKVP [KRT14_Y129_R134P] | 0.456 |
| TTSQPYRRLCS [USH2A_Y534_C536R] | 0.287 |
| NSFKFYMSDDI [ATRX_Y204_C200S_YF] | 0.53 |
| NGSKGYAFVHF [PABPC5_Y147_YF] | 0.5 |
| APTSGYQEFVH [IL4R_Y575] | 0.539 |
| RQQQDYWLKDV [ANPEP_Y600_I603K] | 0.71 |
| LVRPPYSYLAL [FOXI1_Y126_S129L] | 1.62 |
| NTTIHYNYMCN [TP53_Y234_C229N] | 0.767 |
| ESDFTYSSSFE [SRPK2_Y427_YF] | 0.53 |
| GISDEYHVIRR [GCDH_Y398_H403R] | 1.46 |
| QMEKICTQQIQ [CCNB1IP1_Y125_Y125C] | 1 |
| RFLRGYRQYAY [HLA-A_Y137_D140Y] | 0.77 |
| DLVRPYVHKIL [SF3B1_Y570] | 0.466 |
